# T1: AtTGA1:HiBiT (Arabidopsis thaliana, UniProt Q39237 1-368)
# T1 sequence: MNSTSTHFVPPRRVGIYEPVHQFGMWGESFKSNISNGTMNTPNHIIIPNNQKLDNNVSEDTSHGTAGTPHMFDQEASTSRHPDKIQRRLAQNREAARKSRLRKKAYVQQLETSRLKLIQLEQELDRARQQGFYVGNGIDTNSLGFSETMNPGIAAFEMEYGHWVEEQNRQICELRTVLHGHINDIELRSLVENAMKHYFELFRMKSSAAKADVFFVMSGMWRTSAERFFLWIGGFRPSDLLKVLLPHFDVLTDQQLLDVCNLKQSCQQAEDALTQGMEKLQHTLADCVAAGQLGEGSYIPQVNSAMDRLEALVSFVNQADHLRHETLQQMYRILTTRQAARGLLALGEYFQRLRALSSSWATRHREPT
# How the values were obtained:
# AtTGA1:HiBiT [1] = target: T1, AtTGA1:HiBiT; test: qTFD (HiBiT luminescence microplate, relative to rnd); strong rQ; qTFD: 25 mM Tris-HCl pH 8.0, 100 mM KCl, 2 mM DTT, 1 mM EDTA, 0.1% BSA, 500 ng poly(dI-dC), 5% glycerol, 0.05% IGEPAL CA630, 1.5-50 nM protein, 1-3 h, room temperature; EMSA as in cited earlier work; settings: protein: recombinant; tags: C-terminal HiBiT (VSGWRLFKKIS); pH9GW vector, Ni-NTA purified; chain copies: 2; label: none; blunt
# AtTGA1:HiBiT [2] = target: T1, AtTGA1:HiBiT; test: qTFD (HiBiT luminescence microplate, relative to rnd); qTFD: 25 mM Tris-HCl pH 8.0, 100 mM KCl, 2 mM DTT, 1 mM EDTA, 0.1% BSA, 500 ng poly(dI-dC), 5% glycerol, 0.05% IGEPAL CA630, 1.5-50 nM protein, 1-3 h, room temperature; EMSA as in cited earlier work; settings: protein: recombinant; tags: C-terminal HiBiT (VSGWRLFKKIS); pH9GW vector, Ni-NTA purified; chain copies: 2; label: none; blunt
# AtTGA1:HiBiT [3] = target: T1, AtTGA1:HiBiT; test: EMSA; 1.5-15 nM protein; reduced by unlabelled competitor; qTFD: 25 mM Tris-HCl pH 8.0, 100 mM KCl, 2 mM DTT, 1 mM EDTA, 0.1% BSA, 500 ng poly(dI-dC), 5% glycerol, 0.05% IGEPAL CA630, 1.5-50 nM protein, 1-3 h, room temperature; EMSA as in cited earlier work; settings: protein: recombinant; tags: C-terminal HiBiT (VSGWRLFKKIS); pH9GW vector, Ni-NTA purified; chain copies: 2; label: Cy5 (primers); blunt
binder,measurement,setting,value
TFBS_02 (dsDNA) DNA 1: TAGCGAAGTACGATCCCGGACCGCTACATTCCAAATAGTCTGACGTAAGCAATGACAAAACTCACCTACATGGCCATCACGCAGTA DNA 2: TACTGCGTGATGGCCATGTAGGTGAGTTTTGTCATTGCTTACGTCAGACTATTTGGAATGTAGCGGTCCGGGATCGTACTTCGCTA,binding result,AtTGA1:HiBiT [1],binds
CaMV35s as1 (dsDNA) DNA 1: ATGAAGACGCTGGGTTTACATGGGAATGGCTGACGTAAGGGATGACGCACATGCTTCTGTTCTAACAGGCTAGGATATAA DNA 2: TTATATCCTAGCCTGTTAGAACAGAAGCATGTGCGTCATCCCTTACGTCAGCCATTCCCATGTAAACCCAGCGTCTTCAT,binding result,AtTGA1:HiBiT [2],binds
CaMV35s as1 80 bp Cy5 EMSA probe (dsDNA) DNA 1: ATGAAGACGCTGGGTTTACATGGGAATGGCTGACGTAAGGGATGACGCACATGCTTCTGTTCTAACAGGCTAGGATATAA DNA 2: TTATATCCTAGCCTGTTAGAACAGAAGCATGTGCGTCATCCCTTACGTCAGCCATTCCCATGTAAACCCAGCGTCTTCAT,binding result,AtTGA1:HiBiT [3],binds

# From paper PMC10661027, “Tuning Plant Promoters Using a Simple Split Luciferase Method to Assess Transcription Factor-DNA Interactions”
